Assay results reported in patent US11279751B2.

T1: human PXR-GST (Invitrogen) (human) (UniProt O75469)
T1 sequence: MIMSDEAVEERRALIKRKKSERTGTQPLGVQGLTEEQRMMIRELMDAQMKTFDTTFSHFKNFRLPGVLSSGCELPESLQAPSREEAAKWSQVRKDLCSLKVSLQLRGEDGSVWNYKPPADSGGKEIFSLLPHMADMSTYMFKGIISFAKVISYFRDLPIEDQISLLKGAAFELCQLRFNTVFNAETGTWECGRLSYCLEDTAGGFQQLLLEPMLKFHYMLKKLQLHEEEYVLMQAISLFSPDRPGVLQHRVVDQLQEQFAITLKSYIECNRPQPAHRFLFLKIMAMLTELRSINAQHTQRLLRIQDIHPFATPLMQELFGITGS


Tests used:
[1] = molecular target: T1, human PXR-GST (Invitrogen) (human); experiment: SPR (Biacore T100), Adnectin series over human PXR-GST captured by anti-GST antibody
[2] = molecular target: T1, human PXR-GST (Invitrogen) (human); experiment: Biacore, binder at 0.5-2 µM over GST-PXR captured by anti-GST antibody

| Kd [1] | koff [1] | kon [1] | RU bound [2] | Binder |
| --- | --- | --- | --- | --- |
| 4.4 nM | 0.000182 s⁻¹ | 41700 M⁻¹ s⁻¹ | – | Adnectin-8 (designed binder) MGVSDVPRDLEVVAATPTSLLISWSQPGRYVKYYRITYGETGGNSPVQEFTVPNDTYTATISGLKPGVDYTITVYAVYGKYGPYYGYDPISINYRTEIDKPSQHHHHHH |
| – | – | – | 146 RU | WS1 binder of SEQ ID NO: 48 (designed binder) MASTSGVSDVPRDLEVVAATPTSLLISWDAPAVPVSKYVIYYWPGALISSMQAFKVPGSKSTATISGLKPGVLYSIVVDALTGDGQGSYVWDPITITYRTEGSGS |
| – | – | – | 81 RU | WS1 binder of SEQ ID NO: 49 (designed binder) MASTSGVSDVPRDLEVVAATPTSLLISWDAPAVTVHSYYITYQELQHHSVPQGFQVPGSKSTATISGLKPGVAYQIAVYAFTGPGLPPSDAPPIVIYYRTEGSGS |
| 1.9 nM | 0.00126 s⁻¹ | 680000 M⁻¹ s⁻¹ | – | Adnectin-6 (designed binder) MGVSDVPRDLEVVAATPTSLLISWSRPKGSIKYYRITYGETGGNSPVQEFTVPNSQYTATISGLKPGVDYTITVYAVYGYPYQEPHYYPISINYRTEIDKPSQHHHHHH |
| 0.31 nM | 8.82e-05 s⁻¹ | 288000 M⁻¹ s⁻¹ | – | Adnectin-7 (designed binder) MGVSDVPRDLEVVTATPTSLLISWDGPKYYVKYYRITYGETGGNSPVQEFTVPRTDHTATISGLKPGVDYTITVYAVKGQYGPYYGSRPISINYRTEIDKPSQHHHHHH |

The remaining lines, values behind:

| Binder | Kd [1] | koff [1] | kon [1] | RU bound [2] |
| --- | --- | --- | --- | --- |
| Adnectin-3 (designed binder) MASTSGVSDVPRDLEVVAATPTSLLISWDAPAVPVSKYVIYYWPGALISSMQAFKVPGSKSTATISGLKPGVLYSIVVDALTGDGQGSYVWDPITITYRTEGSGSHHHHHH | 2.5 nM | 0.000378 s⁻¹ | 16200 M⁻¹ s⁻¹ | – |
| Adnectin-4 (designed binder) MASTSGVSDVPRDLEVVAATPTSLLISWDAPAVTVHSYYITYQELQHHSVPQGFQVPGSKSTATISGLKPGVAYQIAVYAFTGPGLPPSDAPPIVIYYRTEGSGSHHHHHH | 7.8 nM | 0.000168 s⁻¹ | 21500 M⁻¹ s⁻¹ | – |
| Adnectin-2 (designed binder) MASTSGVSDVPRDLEVVAATPTSLLISWDAPAVTVNNYRITYQPLLQGSSIQHFDVPGSKSTATISGLKPGVGYQITVYASTYTHSKAYYSLPISIYYRTEGSGSHHHHHH | 97.8 nM | 0.00458 s⁻¹ | 162000 M⁻¹ s⁻¹ | – |
| Adnectin-1 (designed binder) MASTSGSTHYYKGTADLEVVAATPTSLLISWPPPYYVEGVTVFRITYGETGGNSPVQEFTVPYWTETATISGLKPGVDYTITVYAEMYPGSPWAGQVMDIQPISINYRTEGSGSHHHHHH | 11.4 nM | 0.00119 s⁻¹ | 104000 M⁻¹ s⁻¹ | – |
| Adnectin-5 (designed binder) MGVSDVPRDLEVVAATPTSLLISWKYPYETISYYRITYGETGGNSPVQEFTVPYYRSTATISGLKPGVDYTITVYAVEASAPYSDGGSPISINYRTEIDKPSQHHHHHH | 5.4 nM | 0.0027 s⁻¹ | 509000 M⁻¹ s⁻¹ | – |
